From article PMC13193388, “Dimerization‐dependent NOTCH receptor transactivation unveils a class of highly selective NOTCH signalling inhibitors” (The Febs Journal, 2025)

Biological target: T1, purified recombinant HIS epitope-tagged NOTCH3 extracellular domain (human, UniProt Q9UM47 40-1643, glycosylated)
T1 construct: NOTCH3, human, complete extracellular domain; written as one chain so that the self-association rows stand for chain with chain; also called N3 ECD; NOTCH3-ECD protein; source: PEC.3.30 (modified Per.E2A) cells, purified from supernatant (HisTrap HP, Superdex 200); not shown: HIS, C-terminal, kept
T1 sequence (Q9UM47 40-1643): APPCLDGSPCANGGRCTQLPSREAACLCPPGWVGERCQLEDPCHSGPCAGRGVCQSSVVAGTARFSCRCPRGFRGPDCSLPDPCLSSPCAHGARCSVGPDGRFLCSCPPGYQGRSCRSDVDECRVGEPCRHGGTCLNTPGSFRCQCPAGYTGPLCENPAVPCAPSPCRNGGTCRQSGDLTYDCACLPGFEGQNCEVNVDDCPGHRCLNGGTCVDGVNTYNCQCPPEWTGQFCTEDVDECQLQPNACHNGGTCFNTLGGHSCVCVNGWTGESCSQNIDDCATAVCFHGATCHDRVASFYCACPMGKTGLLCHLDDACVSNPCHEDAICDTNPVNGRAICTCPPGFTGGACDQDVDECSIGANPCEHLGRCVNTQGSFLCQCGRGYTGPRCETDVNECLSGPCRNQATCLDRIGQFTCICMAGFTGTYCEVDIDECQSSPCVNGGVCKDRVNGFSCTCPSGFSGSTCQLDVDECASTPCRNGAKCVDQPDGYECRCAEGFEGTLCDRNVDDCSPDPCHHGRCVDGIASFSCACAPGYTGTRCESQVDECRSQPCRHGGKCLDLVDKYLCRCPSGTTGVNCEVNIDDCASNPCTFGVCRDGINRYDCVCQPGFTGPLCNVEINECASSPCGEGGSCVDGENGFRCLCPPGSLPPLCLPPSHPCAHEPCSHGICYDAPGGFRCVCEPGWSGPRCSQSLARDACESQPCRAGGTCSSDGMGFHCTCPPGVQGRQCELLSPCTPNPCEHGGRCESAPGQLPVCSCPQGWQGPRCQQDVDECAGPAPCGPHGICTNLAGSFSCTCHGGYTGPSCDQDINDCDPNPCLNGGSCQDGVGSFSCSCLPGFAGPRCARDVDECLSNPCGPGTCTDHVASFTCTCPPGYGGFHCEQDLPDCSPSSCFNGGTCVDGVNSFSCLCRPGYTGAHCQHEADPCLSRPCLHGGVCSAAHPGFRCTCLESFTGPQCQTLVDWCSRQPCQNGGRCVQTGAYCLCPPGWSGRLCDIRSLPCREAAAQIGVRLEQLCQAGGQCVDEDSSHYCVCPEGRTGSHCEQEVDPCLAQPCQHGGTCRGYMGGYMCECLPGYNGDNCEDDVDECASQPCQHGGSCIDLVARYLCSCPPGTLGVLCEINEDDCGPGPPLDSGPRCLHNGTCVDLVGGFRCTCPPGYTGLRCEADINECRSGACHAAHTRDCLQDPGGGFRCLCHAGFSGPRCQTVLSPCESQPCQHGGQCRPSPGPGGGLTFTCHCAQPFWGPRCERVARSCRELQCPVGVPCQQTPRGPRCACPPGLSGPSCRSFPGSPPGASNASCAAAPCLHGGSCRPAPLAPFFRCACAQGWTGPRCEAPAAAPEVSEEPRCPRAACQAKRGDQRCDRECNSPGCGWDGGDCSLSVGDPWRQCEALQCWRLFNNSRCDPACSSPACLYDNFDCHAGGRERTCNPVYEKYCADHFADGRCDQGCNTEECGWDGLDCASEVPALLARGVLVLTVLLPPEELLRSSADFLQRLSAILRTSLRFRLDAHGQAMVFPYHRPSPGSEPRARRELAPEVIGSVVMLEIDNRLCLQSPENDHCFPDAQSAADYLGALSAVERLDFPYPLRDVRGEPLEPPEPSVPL
Test: SPR; Biacore T200; NOTCH3-ECD immobilized on NTA Series S chip by nickel-NTA capture-coupling (about 3500 RU); peptides flowed at 30 μL/min; 50 mM HEPES, 150 mM NaCl, 25 °C; steady-state affinity model
Conditions: both partners purified

B1: N34 peptide (peptide)
peptide: EKYCADHFADGR
notes: NOTCH3, human, peptide centred on the helix encompassing the core dimerization motif of the NRR; also called N3 peptide
binding result: binds
